Test results reported in PMC11187563, “The importance of tyrosines in multimers of cyclic RGD nonapeptides: towards αvβ6-integrin targeted radiotherapeutics” (RSC Medicinal Chemistry, 2024).
Read-outs that look alike come from different tables or passages of the source.

Assays:
[1] = Ex vivo biodistribution of 177Lu-labeled peptide tetramers in H2009 xenografted SCID mice; conditions: CB17 SCID, mouse, iv, total radioactivity, H2009 bearing SCID mice; for tissue uptake at 72 h / tissue to tissue ratio at 72 h: 42 pmol, 3 d p.i.; for tissue uptake at 1.5 h / tissue to tissue ratio at 1.5 h: 139 pmol, 90 min p.i.
Protocol: (§1) The biodistribution of the ^177Lu-labeled peptide conjugates was investigated in severe combined immunodeficiency (SCID) mice bearing subcutaneous xenografts of the αvβ6-integrin expressing human lung adenocarcinoma cell line H2009 on their right shoulders. Two representative time points after i.v. administration (p.i.) were evaluated.
(§2) Analytical HPLC was performed on a Shimadzu (Kyoto, Japan) Prominence HPLC system equipped with either a Dr. Maisch ReproSil Pur C18 AQ 150 × 4.6 mm, 5 μm, 120 Å (AC1) or a Phenomenex Kinetex C18 150 × 4.6 mm 5 μm column (AC2). Semipreparative HPLC was performed on a Shimadzu HPLC system equipped with either a Dr. Maisch ReproSil Pur C18 AQ 250 × 10 mm, 5 μm, 120 Å column with 5 mL min^−1 flow (PC1) or a Dr. Maisch ReproSil Pur C18 150 × 30 mm, 5 μm, 120 Å column with 20 mL min^−1 flow (PC2). Solvents for both systems were water (A) and acetonitrile (B) each supplemented with 0.1% (vol) trifluoroacetic acid (TFA). ESI-MS spectra (positive mode) were recorded on a Shimadzu LC-MS 2020 single quadrupol mass spectrometer. Solvents for MS applications were water (A) and acetonitrile (B) each supplemented with 0.1% (vol) formic acid. The other experimental procedures (determination of log D7.4, cultivation of H2009 human lung adenocarcinoma cells, generation of tumor xenografts in CB17 SCID mice, and biodistribution) were performed as described before.[28] All animal experiments have been carried out according to applicable law and institutional guidelines of Technical University of Munich, and were approved by the responsible local authority (Regierung von Oberbayern). The H2009 cells were regularly authenticated and tested for mycoplasma contamination. DOTPI-tetraazide,[43]FF (previously termed AvB6),[29]FY,[34] and YY (also referred to as Tyr2-alkyne)[36] were synthesized as described previously.

[2] = test system: αvβ6-integrin expressing human lung adenocarcinoma cell line H2009 xenografts; assay: as above; conditions: H2009 bearing SCID mice
Protocol: as §1, §2

[3] = H2009 tumor, read-out: Tumor H2009 %IA/g
[4] = adrenals, read-out: Adrenals %IA/g
[5] = heart (myocard), read-out: Heart (myocard) %IA/g
[6] = kidneys, read-out: Kidneys %IA/g
[7] = large intestine (empty), read-out: Large intestine (empty) %IA/g
[8] = pancreas, read-out: Pancreas %IA/g
[9] = small intestine (empty), read-out: Small intestine (empty) %IA/g
[10] = stomach (empty), read-out: Stomach (empty) %IA/g
[11] = tumor/blood, read-out: tumor/organ ratio, Blood
[12] = tumor/heart (myocard), read-out: tumor/organ ratio, Heart (myocard)
[13] = tumor/liver, read-out: tumor/organ ratio, Liver
[14] = tumor/lung, read-out: tumor/organ ratio, Lung
[15] = tumor/pancreas, read-out: tumor/organ ratio, Pancreas
[16] = tumor/spleen, read-out: tumor/organ ratio, Spleen

CC(C)C[C@@H]1NC(=O)[C@H](CC(=O)O)NC(=O)CNC(=O)[C@H](CCCNC(=N)N)NC(=O)[C@H](Cc2ccccc2)NC(=O)[C@H](CCCCNC(=O)CCc2cn(CCCNC(=O)CCP(=O)(O)CN3CCN(CP(=O)(O)CCC(=O)NCCCn4cc(CCC(=O)NCCCC[C@H]5C(=O)N[C@@H](Cc6ccccc6)C(=O)N[C@@H](CCCNC(=N)N)C(=O)NCC(=O)N[C@@H](CC(=O)O)C(=O)N[C@@H](CC(C)C)C(=O)N[C@@H](C)C(=O)N[C@@H](Cc6ccc(O)cc6)C(=O)N6CCC[C@@H]6C(=O)N5C)nn4)CCN(CP(=O)(O)CCC(=O)NCCCn4cc(CCC(=O)NCCCC[C@H]5C(=O)N[C@@H](Cc6ccccc6)C(=O)N[C@@H](CCCNC(=N)N)C(=O)NCC(=O)N[C@@H](CC(=O)O)C(=O)N[C@@H](CC(C)C)C(=O)N[C@@H](C)C(=O)N[C@@H](Cc6ccc(O)cc6)C(=O)N6CCC[C@@H]6C(=O)N5C)nn4)CCN(CP(=O)(O)CCC(=O)NCCCn4cc(CCC(=O)NCCCC[C@H]5C(=O)N[C@@H](Cc6ccccc6)C(=O)N[C@@H](CCCNC(=N)N)C(=O)NCC(=O)N[C@@H](CC(=O)O)C(=O)N[C@@H](CC(C)C)C(=O)N[C@@H](C)C(=O)N[C@@H](Cc6ccc(O)cc6)C(=O)N6CCC[C@@H]6C(=O)N5C)nn4)CC3)nn2)N(C)C(=O)[C@H]2CCCN2C(=O)[C@H](Cc2ccccc2)NC(=O)[C@H](C)NC1=O [Compound 177Lu-Y3, metal not drawn]
tissue uptake at 72 h [1, 3]: 2.03 %ID/g
tissue uptake at 1.5 h [1, 3]: 3.7 %ID/g
tissue uptake at 72 h [1, 4]: 0.27 %ID/g
tissue uptake at 1.5 h [1, 4]: 1.04 %ID/g
tissue uptake at 72 h ([1]; blood, read-out: Blood %IA/g): 0.02 %ID/g
tissue uptake at 1.5 h ([1]; blood, read-out: Blood %IA/g): 1.11 %ID/g
tissue uptake at 72 h ([1]; bone, read-out: Bone %IA/g): 0.35 %ID/g
tissue uptake at 1.5 h ([1]; bone, read-out: Bone %IA/g): 1.51 %ID/g
tissue uptake at 72 h [1, 5]: 0.22 %ID/g
tissue uptake at 1.5 h [1, 5]: 0.65 %ID/g
tissue uptake at 72 h [1, 6]: 250 %ID/g
tissue uptake at 1.5 h [1, 6]: 141 %ID/g
tissue uptake at 72 h [1, 7]: 1.34 %ID/g
tissue uptake at 1.5 h [1, 7]: 3.43 %ID/g
tissue uptake at 72 h ([1]; liver, read-out: Liver %IA/g): 1.17 %ID/g
tissue uptake at 1.5 h ([1]; liver, read-out: Liver %IA/g): 7.59 %ID/g
tissue uptake at 72 h ([1]; lung, read-out: Lung %IA/g): 1.22 %ID/g
tissue uptake at 1.5 h ([1]; lung, read-out: Lung %IA/g): 4.91 %ID/g
tissue uptake at 72 h ([1]; muscle, read-out: Muscle %IA/g): 0.47 %ID/g
tissue uptake at 1.5 h ([1]; muscle, read-out: Muscle %IA/g): 0.57 %ID/g
tissue uptake at 72 h [1, 8]: 0.25 %ID/g
tissue uptake at 1.5 h [1, 8]: 0.36 %ID/g
tissue uptake at 72 h [1, 9]: 0.37 %ID/g
tissue uptake at 1.5 h [1, 9]: 2.49 %ID/g
tissue uptake at 72 h ([1]; spleen, read-out: Spleen %IA/g): 1.36 %ID/g
tissue uptake at 1.5 h ([1]; spleen, read-out: Spleen %IA/g): 8.5 %ID/g
tissue uptake at 72 h [1, 10]: 4.76 %ID/g
tissue uptake at 1.5 h [1, 10]: 7.42 %ID/g
tissue to tissue ratio at 72 h ([1]; tumor / adrenals, read-out: tumor/organ ratio, Adrenals): 8.4
tissue to tissue ratio at 72 h ([1]; tumor / bone, read-out: tumor/organ ratio, Bone): 6.6
tissue to tissue ratio at 72 h ([1]; tumor / large intestine (empty), read-out: tumor/organ ratio, Large intestine (empty)): 2.3
tissue to tissue ratio at 72 h ([1]; tumor / muscle, read-out: tumor/organ ratio, Muscle): 5.3
tissue to tissue ratio at 72 h ([1]; tumor / small intestine (empty), read-out: tumor/organ ratio, Small intestine (empty)): 6.6
tissue to tissue ratio at 72 h ([1]; tumor / stomach (empty), read-out: tumor/organ ratio, Stomach (empty)): 0.5
tissue to tissue ratio at 1.5 h ([1]; tumor/adrenals, read-out: tumor/organ ratio, Adrenals): 3.9
tissue to tissue ratio at 72 h [1, 11]: 129
tissue to tissue ratio at 1.5 h [1, 11]: 3.4
tissue to tissue ratio at 1.5 h ([1]; tumor/bone, read-out: tumor/organ ratio, Bone): 2.5
tissue to tissue ratio at 72 h [1, 12]: 9.4
tissue to tissue ratio at 1.5 h [1, 12]: 5.8
tissue to tissue ratio at 1.5 h ([1]; tumor/large intestine (empty), read-out: tumor/organ ratio, Large intestine (empty)): 1.1
tissue to tissue ratio at 72 h [1, 13]: 1.9
tissue to tissue ratio at 1.5 h [1, 13]: 0.6
tissue to tissue ratio at 72 h [1, 14]: 1.7
tissue to tissue ratio at 1.5 h [1, 14]: 0.8
tissue to tissue ratio at 1.5 h ([1]; tumor/muscle, read-out: tumor/organ ratio, Muscle): 6.6
tissue to tissue ratio at 72 h [1, 15]: 10.6
tissue to tissue ratio at 1.5 h [1, 15]: 10.3
tissue to tissue ratio at 1.5 h ([1]; tumor/small intestine (empty), read-out: tumor/organ ratio, Small intestine (empty)): 1.5
tissue to tissue ratio at 72 h [1, 16]: 1.7
tissue to tissue ratio at 1.5 h [1, 16]: 0.5
tissue to tissue ratio at 1.5 h ([1]; tumor/stomach (empty), read-out: tumor/organ ratio, Stomach (empty)): 0.5
tumor/organ ratio, Kidneys ([2]; 90 min p.i.): 0.0
tumor/organ ratio, Kidneys ([2]; 3 d p.i.): 0.0
